PMC5526789, “Structure of Full-Length SMC and Rearrangements Required for Chromosome Organization” (Molecular Cell, 2017)
One block for each molecule: values may come before it.

Assays:
[1] = molecular target: BsSmcH-CC8(N634C) (Bacillus subtilis) (UniProt P51834); test: cross-linking; subunit exchange: equal amounts of two purified single-cysteine proteins mixed on ice, incubated at 37°C in 50 mM Tris-HCl pH 7.4, 200 mM NaCl, 1 mM TCEP; aliquots cross-linked with 200 µM BMOE (R558C to N634C at the hinge dimer interface); SDS-PAGE and Agilent 2100 Bioanalyzer; dimer to monomers
[2] = molecular target: Smc(D193C, mH, E1118Q)-HaloTag (Bacillus subtilis) (UniProt P51834); test: cross-linking; in vivo cysteine cross-linking: intact B. subtilis cells grown in SMG, 0.5 mM BMOE on ice; Smc-HaloTag labelled with HaloTag-TMR, SDS-PAGE, in-gel fluorescence; S152C and D193C report juxtaposed (disengaged) heads of the rod, K1151C ATP-engaged heads, A715C the arm/arm interface near the hinge
[3] = molecular target: Smc(S152C, mH, E1118Q)-HaloTag (Bacillus subtilis) (UniProt P51834); test: as above
[4] = molecular target: the molecule itself; test: crystal structure; BsSmcCC2, hanging drop, 4°C, PEG 3350, Tris pH 8, MPD, calcium acetate; space group P1, two dimers in the asymmetric unit

half-life of the hinge dimer (subunit exchange) [1]: 49 min
Molecule: BsSmcH-CC8(R558C) (from UniProt P51834 519-637) (domain or fragment)

cross-linking relative to wild type (% of wild-type levels) [2]: 20
Molecule: Smc(D193C, mH, E1118Q)-HaloTag (from UniProt P51834 1-1186) (natural protein)

cross-linking relative to wild type (% of wild-type levels) [3]: 20
Molecule: Smc(S152C, mH, E1118Q)-HaloTag (from UniProt P51834 1-1186) (natural protein)

B1: BsSmcCC2 (domain or fragment, Bacillus subtilis)
chain: EKVQMAKEEELAESSAISAKEAKIEDTRDKIQALDESVDELQQVLLVTSEELEKLEGRKEVLKERKKNAVQNQEQLEEAIVQFQQKETVLKEELSKQEAVFETLQAEVKQLRAQVKEKQQALSLHNENVEEKIESGGSGGSRLTKQKQTQSSTKESLSNELTELKIAAAKKEQACKGEEDNLARLKKELTETELALKEAKEDLSFLTSEMSSSTSGEEKLEEAAKHKLNDKTKTIELIALRRDQRIKLQHGLDTYERELKEMKRLYKQKTTLLKDEEV
notes: Smc of Bacillus subtilis, residues 246-379 (N-terminal coiled-coil helix); linker; Smc of Bacillus subtilis, residues 793-929 (C-terminal coiled-coil helix); Selenomethionine-labelled protein was used for the SAD data; also called Smc middle segment; Bs Smc (246-379)/SGGSGGS/(793-929); source: E. coli BL21[DE3], purified (His-Trap, MonoQ, TEV cleavage, Superdex 200); not shown: His6, N-terminal, …
binding result [4]: binds
